From US20230340146A1 (US Dept. of Health and Human Services, published 2023)

How the values were obtained:
[1] = target: T1, human GPC1 on cells (T3M4, KLM1, H8, 2B9) (human) (UniProt P35052); assay: flow cytometry on T3M4 pancreatic cancer cells, non-specific control IgG, goat anti-mouse IgG-PE
T1 sequence (looked up): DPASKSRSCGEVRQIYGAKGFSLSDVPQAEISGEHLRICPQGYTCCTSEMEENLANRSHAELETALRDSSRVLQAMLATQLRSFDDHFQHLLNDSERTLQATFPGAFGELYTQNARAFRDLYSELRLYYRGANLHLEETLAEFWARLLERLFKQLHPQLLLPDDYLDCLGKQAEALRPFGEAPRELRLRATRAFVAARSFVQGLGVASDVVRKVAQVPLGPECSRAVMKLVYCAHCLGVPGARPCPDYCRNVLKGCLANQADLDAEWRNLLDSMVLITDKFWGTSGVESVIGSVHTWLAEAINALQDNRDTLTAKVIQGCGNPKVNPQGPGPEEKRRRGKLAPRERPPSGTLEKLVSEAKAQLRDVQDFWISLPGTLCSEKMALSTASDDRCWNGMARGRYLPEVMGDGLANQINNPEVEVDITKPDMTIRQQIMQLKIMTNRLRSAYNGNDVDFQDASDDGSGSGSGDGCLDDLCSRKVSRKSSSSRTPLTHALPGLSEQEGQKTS

human glypican-5 (GPC5) [2] = target: T2, human glypican-5 (GPC5) (human, UniProt P78333 25-551, limits assumed); assay: monoclonal phage ELISA on plate-coated glypicans
T2 construct: Named through 'human GPC1 through GPC6' in the methods; also called human GPC5; other human glypican members
T2 sequence (looked up): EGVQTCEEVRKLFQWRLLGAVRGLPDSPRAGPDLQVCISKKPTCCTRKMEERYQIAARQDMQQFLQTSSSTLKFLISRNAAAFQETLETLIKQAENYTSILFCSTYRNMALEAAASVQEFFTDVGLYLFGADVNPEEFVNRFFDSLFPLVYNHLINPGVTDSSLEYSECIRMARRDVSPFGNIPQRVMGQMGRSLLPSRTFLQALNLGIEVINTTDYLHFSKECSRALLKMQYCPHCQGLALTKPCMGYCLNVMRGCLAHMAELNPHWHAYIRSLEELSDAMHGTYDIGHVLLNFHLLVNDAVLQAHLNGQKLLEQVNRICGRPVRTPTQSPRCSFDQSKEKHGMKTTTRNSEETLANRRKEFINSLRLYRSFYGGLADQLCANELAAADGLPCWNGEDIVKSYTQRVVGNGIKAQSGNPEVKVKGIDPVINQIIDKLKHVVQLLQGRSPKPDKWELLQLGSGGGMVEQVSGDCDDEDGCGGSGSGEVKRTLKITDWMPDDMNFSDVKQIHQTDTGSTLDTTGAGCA

human glypican-3 (GPC3) [3] = target: T3, human glypican-3 (GPC3) (human, UniProt P51654 25-559, limits assumed); assay: monoclonal phage ELISA on plate-coated glypicans
T3 construct: Named through 'human GPC1 through GPC6' in the methods; also called human GPC3; other human glypican members

human glypican-2 (GPC2) [4] = target: T4, human glypican-2 (GPC2) (human, UniProt Q8N158 24-554, limits assumed); assay: monoclonal phage ELISA on plate-coated glypicans
T4 construct: Named through 'human GPC1 through GPC6' in the methods; also called human GPC2; other human glypican members
T4 sequence (looked up): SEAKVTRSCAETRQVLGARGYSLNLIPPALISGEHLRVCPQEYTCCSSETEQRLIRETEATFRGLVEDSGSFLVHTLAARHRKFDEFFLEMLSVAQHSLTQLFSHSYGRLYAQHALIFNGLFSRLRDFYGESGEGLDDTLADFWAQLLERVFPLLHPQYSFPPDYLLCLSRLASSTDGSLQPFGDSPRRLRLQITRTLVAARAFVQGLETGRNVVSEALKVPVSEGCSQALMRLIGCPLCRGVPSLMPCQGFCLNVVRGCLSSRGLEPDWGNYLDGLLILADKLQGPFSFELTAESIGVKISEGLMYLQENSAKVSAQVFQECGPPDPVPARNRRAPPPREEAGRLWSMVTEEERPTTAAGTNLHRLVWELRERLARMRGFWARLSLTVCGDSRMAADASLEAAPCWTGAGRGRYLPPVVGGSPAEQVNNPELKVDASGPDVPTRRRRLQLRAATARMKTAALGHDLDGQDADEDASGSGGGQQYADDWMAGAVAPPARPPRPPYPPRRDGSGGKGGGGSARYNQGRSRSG

human glypican-6 (GPC6) [5] = target: T5, human glypican-6 (GPC6) (human, UniProt Q9Y625 24-529, limits assumed); assay: monoclonal phage ELISA on plate-coated glypicans
T5 construct: Named through 'human GPC1 through GPC6' in the methods; also called human GPC6; other human glypican members
T5 sequence (looked up): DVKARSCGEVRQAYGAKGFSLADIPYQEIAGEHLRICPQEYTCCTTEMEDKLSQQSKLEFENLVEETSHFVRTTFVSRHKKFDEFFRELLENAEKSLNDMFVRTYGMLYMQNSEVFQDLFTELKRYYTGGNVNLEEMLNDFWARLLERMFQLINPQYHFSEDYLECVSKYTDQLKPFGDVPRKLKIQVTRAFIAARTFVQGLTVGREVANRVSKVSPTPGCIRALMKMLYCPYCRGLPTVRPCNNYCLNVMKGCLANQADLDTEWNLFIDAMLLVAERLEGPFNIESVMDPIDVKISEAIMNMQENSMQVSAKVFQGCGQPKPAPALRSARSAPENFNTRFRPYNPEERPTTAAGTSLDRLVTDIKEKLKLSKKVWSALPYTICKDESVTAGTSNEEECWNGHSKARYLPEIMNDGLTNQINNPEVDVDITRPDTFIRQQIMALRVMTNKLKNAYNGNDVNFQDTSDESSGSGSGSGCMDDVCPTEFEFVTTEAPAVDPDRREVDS

[6] = target: T6, recombinant human GPC1-hFc protein (human, UniProt P35052 24-530, limits assumed); assay: Octet (BLI), His-tagged D4 on Ni-NTA biosensor, serially diluted human GPC1-hFc in solution
T6 construct: Analyte in the Octet measurement of D4; not shown: human Fc (hFc)
T6 sequence (looked up): T1 sequence (looked up)
Method: (§1) Data analysis was performed using the FortéBio analysis software.

mouse GPC1 protein = target: T7, mouse GPC1 protein (mouse, UniProt Q9QZF2 24-529, limits assumed); assay: monoclonal phage ELISA on plate-coated mouse GPC1
T7 sequence (looked up): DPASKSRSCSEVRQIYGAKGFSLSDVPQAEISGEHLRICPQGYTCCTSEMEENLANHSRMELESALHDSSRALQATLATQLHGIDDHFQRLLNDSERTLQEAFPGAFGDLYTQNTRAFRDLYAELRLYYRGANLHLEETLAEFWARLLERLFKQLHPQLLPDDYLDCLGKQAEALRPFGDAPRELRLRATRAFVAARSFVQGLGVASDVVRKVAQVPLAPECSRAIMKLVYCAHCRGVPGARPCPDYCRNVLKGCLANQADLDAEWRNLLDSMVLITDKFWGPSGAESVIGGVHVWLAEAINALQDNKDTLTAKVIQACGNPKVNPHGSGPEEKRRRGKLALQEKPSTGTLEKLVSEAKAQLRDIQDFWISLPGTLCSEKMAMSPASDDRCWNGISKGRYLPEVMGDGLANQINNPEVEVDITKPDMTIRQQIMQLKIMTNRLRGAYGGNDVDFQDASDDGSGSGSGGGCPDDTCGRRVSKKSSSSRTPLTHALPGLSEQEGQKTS

human glypican-4 (GPC4) [7] = target: T8, human glypican-4 (GPC4) (human, UniProt O75487 19-529, limits assumed); assay: ELISA on human GPC4, anti-FLAG detection
T8 construct: Named through 'human GPC1 through GPC6' in the methods; also called human GPC4; other human glypican members
T8 sequence (looked up): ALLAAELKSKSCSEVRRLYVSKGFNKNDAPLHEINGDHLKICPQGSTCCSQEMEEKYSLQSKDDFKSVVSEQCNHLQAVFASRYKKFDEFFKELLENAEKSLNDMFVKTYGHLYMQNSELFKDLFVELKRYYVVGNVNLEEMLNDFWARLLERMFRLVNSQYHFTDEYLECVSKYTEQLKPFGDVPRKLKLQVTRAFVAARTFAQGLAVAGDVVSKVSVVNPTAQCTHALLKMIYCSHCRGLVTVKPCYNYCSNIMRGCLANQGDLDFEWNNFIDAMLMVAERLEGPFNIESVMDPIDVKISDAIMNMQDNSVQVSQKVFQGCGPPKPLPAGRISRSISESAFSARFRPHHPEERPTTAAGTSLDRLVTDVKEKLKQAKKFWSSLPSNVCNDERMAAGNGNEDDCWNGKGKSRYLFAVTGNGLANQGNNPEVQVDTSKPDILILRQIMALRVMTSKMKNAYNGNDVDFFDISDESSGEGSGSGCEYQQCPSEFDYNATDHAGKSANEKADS
Method: (§2) Mouse hybridoma supernatant containing 1 µg/ml of each mAb was incubated with plates coated with human GPC1 through GPC6 purchased from R&D Systems. Binding was detected with a goat anti-mouse IgG conjugated with horseradish peroxidase (HRP) (Jackson ImmunoResearch). […] Binding was detected with an anti-FLAG HRP-conjugated antibody (Sigma-Aldrich). […] Recombinant human GPC1-hFc protein at concentrations of 5 µg/ml and 1 µg/ml were then added to the plate.

GPC1 peptide 14 = target: T9, GPC1 peptide 14; assay: ELISA on peptides of the GPC1 peptide library
T9 peptide: FRDLYSELRLYYRGANLH

GPC1 peptide 15 = target: T10, GPC1 peptide 15; assay: ELISA on peptides of the GPC1 peptide library
T10 peptide: LYYRGANLHLEETLAEFW

[8] = target: T1, human GPC1 on cells (T3M4, KLM1, H8, 2B9) (human); assay: cell-based or functional assay
His-tagged GPC1 protein = target: T11, His-tagged GPC1 protein (human, UniProt P35052 24-530, limits assumed); assay: Octet (BLI), His-tagged GPC1 on Ni-NTA biosensor, HM2 in solution
T11 construct: Immobilised on a Ni-NTA biosensor for the Octet measurement of HM2; also called human GPC1; not shown: His tag
T11 sequence (looked up): T1 sequence (looked up)
Method: as §1

human glypican-4 (GPC4) [9] = target: T8, human glypican-4 (GPC4); assay: ELISA, plate coated with human GPC4
Method: as §2

human glypican-5 (GPC5) [10] = target: T2, human glypican-5 (GPC5); assay: ELISA on plate-coated human glypicans, goat anti-mouse IgG-HRP
human glypican-3 (GPC3) [11] = target: T3, human glypican-3 (GPC3); assay: as above
human glypican-2 (GPC2) [12] = target: T4, human glypican-2 (GPC2); assay: as above
human glypican-6 (GPC6) [13] = target: T5, human glypican-6 (GPC6); assay: as above
GPC1 peptide 53 = target: T12, GPC1 peptide 53; assay: ELISA on peptides of the GPC1 peptide library
T12 peptide: DGCLDDLCSRKVSRKSSS

Neg ctrl (antibody)
MFI [1]: 7

B1: D4 camel single-domain antibody (VHH)
VHH: QVQLVESGGGLVQPGGSLRLSCVASGYSYSIGYMAWFRQAPGKERAWVASRYTGDGGAVFDDAVKGRFTTSQESAGNTFDLQMDSLKPEDTAMYYCAAKGPGFGRWEYWGRGTQVTVSS
notes: the methods describe D4 at 1 ug/ml detected with anti-FLAG; also called D4 antibody; D4 clone; not shown: FLAG and His tags (detected with anti-FLAG; 'His-tagged D4')
binding result (human glypican-5 (GPC5) [2]): no binding (tested: 1 µg/ml (per paragraph 203; not on the sheet))
binding result (human glypican-3 (GPC3) [3]): no binding (tested: 1 µg/ml (per paragraph 203; not on the sheet))
binding result (human glypican-2 (GPC2) [4]): no binding (tested: 1 µg/ml (per paragraph 203; not on the sheet))
binding result (human glypican-6 (GPC6) [5]): no binding (tested: 1 µg/ml (per paragraph 203; not on the sheet))
Kd [6]: 0.7 nM
binding result (mouse GPC1 protein): binds
binding result (human glypican-4 (GPC4) [7]): no binding (tested: 1 µg/ml)
binding result (GPC1 peptide 14): binds
binding result (GPC1 peptide 15): binds

B2: D4-IgG4 hinge-CD28 TM CAR (protein)
chain: HMQVQLVESGGGLVQPGGSLRLSCVASGYSYSIGYMAWFRQAPGKERAWVASRYTGDGGAVFDDAVKGRFTTSQESAGNTFDLQMDSLKPEDTAMYYCAAKGPGFGRWEYWGRGTQVTVSSTSESKYGPPCPPCPFWVLVVVGGVLACYSLLVTVAFIIFWVKRGRKKLLYIFKQPFMRPVQTTQEEDGCSCRFPEEEEGGCELRVKFSRSADAPAYQQGQNQLYNELNLGRREEYDVLDKRRGRDPEMGGKPRRKNPQEGLYNELQKDKMAEAYSEIGMKGERRRGKGHDGLYQGLSTATKDTYDALHMQALPPR
cytolytic activity against T3M4 cells, difference to D4-IgG4 hinge-CD8 TM CAR T cells [8]: 10%
killing ability at high E:T ratio [8]: 91.6%

B3: HM2 mouse monoclonal antibody (antibody, V domains shown)
VH: EVQLQQSGAELVRPGASVKLSCTASGFNIKDDYMHWVKQRPEQGLEWIGWIDPENGDTEYASKFQGKATITADTSSNTAYLQLSSLTSEDTAVYYCTRSSVGYWGQGTTLTVSS
VL: DVVMTQTPLSLPVSLGDQASISCRSSQSLVHSNGNTYLHWYLQKPGQSPKLLIYKVSNRFSGVPDRFSGSGSGTYFTLKISRVEAEDLGVYFCSQRTHVPYTFGGGTKLEIK
notes: Mouse monoclonal antibody (detected with goat anti-mouse IgG); also called HM2 mAb; HM2 clone
Kd (His-tagged GPC1 protein): 0.4 nM
binding result (human glypican-4 (GPC4) [9]): no binding (tested: 1 µg/ml)
binding result (human glypican-5 (GPC5) [10]): no binding (tested: 1 µg/ml)
binding result (human glypican-3 (GPC3) [11]): no binding (tested: 1 µg/ml)
binding result (human glypican-2 (GPC2) [12]): no binding (tested: 1 µg/ml)
binding result (human glypican-6 (GPC6) [13]): no binding (tested: 1 µg/ml)
binding result (GPC1 peptide 53): binds
